Experimental data from IntAct's records for PubMed 22215984.

B1: Regulatory protein RapF (Bacillus subtilis), P71002 (parent)
chain: MTGVISSSSIGEKINEWYMYIRRFSIPDAEYLRREIKQELDQMEEDQDLHLYYSLMEFRHNLMLEYLEPLEKMRIEEQPRLSDLLLEIDKKQARLTGLLEYYFNFFRGMYELDQREYLSAIKFFKKAESKLIFVKDRIEKAEFFFKMSESYYYMKQTYFSMDYARQAYEIYKEHEAYNIRLLQCHSLFATNFLDLKQYEDAISHFQKAYSMAEAEKQPQLMGRTLYNIGLCKNSQSQYEDAIPYFKRAIAVFEESNILPSLPQAYFLITQIHYKLGKIDKAHEYHSKGMAYSQKAGDVIYLSEFEFLKSLYLSGPDEEAIQGFFDFLESKMLYADLEDFAIDVAKYYHERKNFQKASAYFLKVEQVRQLIQGGVSLYEIEV
partner: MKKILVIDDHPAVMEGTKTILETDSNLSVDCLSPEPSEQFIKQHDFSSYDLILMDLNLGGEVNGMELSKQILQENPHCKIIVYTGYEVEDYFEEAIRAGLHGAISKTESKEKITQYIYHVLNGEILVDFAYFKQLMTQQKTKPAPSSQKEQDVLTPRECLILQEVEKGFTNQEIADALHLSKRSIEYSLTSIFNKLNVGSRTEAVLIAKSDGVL
B2: Transcriptional regulatory protein ComA (Bacillus subtilis), P14204 (parent)
chain: B1 partner
partner: B1 chain

Variants of: B1
Details: with cmpa_bacsu comA

Effect of a mutation on the interaction, decreasing interaction:
MTGVISSSSIGEKINEWYMYIRRFSIPDAEYLRREIKQELDQMEEDQDLHLYYSLMEFRHNLMLEYLEPLEKMRIEEAPRLSDLLLEIDKKQARLTGLLEYYFNFFRGMYELDQREYLSAIKFFKKAESKLIFVKDRIEKAEFFFKMSESYYYMKQTYFSMDYARQAYEIYKEHEAYNIRLLQCHSLFATNFLDLKQYEDAISHFQKAYSMAEAEKQPQLMGRTLYNIGLCKNSQSQYEDAIPYFKRAIAVFEESNILPSLPQAYFLITQIHYKLGKIDKAHEYHSKGMAYSQKAGDVIYLSEFEFLKSLYLSGPDEEAIQGFFDFLESKMLYADLEDFAIDVAKYYHERKNFQKASAYFLKVEQVRQLIQGGVSLYEIEV [Q78A]
MTGVISSSSIGEKINEWYMYIRRFSIADAEYLRREIKQELDQMEEDQDLHLYYSLMEFRHNLMLEYLEPLEKMRIEEQPRLSDLLLEIDKKQARLTGLLEYYFNFFRGMYELDQREYLSAIKFFKKAESKLIFVKDRIEKAEFFFKMSESYYYMKQTYFSMDYARQAYEIYKEHEAYNIRLLQCHSLFATNFLDLKQYEDAISHFQKAYSMAEAEKQPQLMGRTLYNIGLCKNSQSQYEDAIPYFKRAIAVFEESNILPSLPQAYFLITQIHYKLGKIDKAHEYHSKGMAYSQKAGDVIYLSEFEFLKSLYLSGPDEEAIQGFFDFLESKMLYADLEDFAIDVAKYYHERKNFQKASAYFLKVEQVRQLIQGGVSLYEIEV [P27A]

Effect of a mutation on the interaction, disrupting interaction:
MTGVISSSSIGEKINEWYMYIRRFSIPAAEYLRREIKQELDQMEEDQDLHLYYSLMEFRHNLMLEYLEPLEKMRIEEQPRLSDLLLEIDKKQARLTGLLEYYFNFFRGMYELDQREYLSAIKFFKKAESKLIFVKDRIEKAEFFFKMSESYYYMKQTYFSMDYARQAYEIYKEHEAYNIRLLQCHSLFATNFLDLKQYEDAISHFQKAYSMAEAEKQPQLMGRTLYNIGLCKNSQSQYEDAIPYFKRAIAVFEESNILPSLPQAYFLITQIHYKLGKIDKAHEYHSKGMAYSQKAGDVIYLSEFEFLKSLYLSGPDEEAIQGFFDFLESKMLYADLEDFAIDVAKYYHERKNFQKASAYFLKVEQVRQLIQGGVSLYEIEV [D28A]
MTGVISSSSIGEKINEWYMYIRRFSIPDAEYLRREIKQELDQMEEDQDLHLYYSLMEFRHNLMLEYAEPLEKMRIEEQPRLSDLLLEIDKKQARLTGLLEYYFNFFRGMYELDQREYLSAIKFFKKAESKLIFVKDRIEKAEFFFKMSESYYYMKQTYFSMDYARQAYEIYKEHEAYNIRLLQCHSLFATNFLDLKQYEDAISHFQKAYSMAEAEKQPQLMGRTLYNIGLCKNSQSQYEDAIPYFKRAIAVFEESNILPSLPQAYFLITQIHYKLGKIDKAHEYHSKGMAYSQKAGDVIYLSEFEFLKSLYLSGPDEEAIQGFFDFLESKMLYADLEDFAIDVAKYYHERKNFQKASAYFLKVEQVRQLIQGGVSLYEIEV [L67A]
MTGVISSSSIGEKINEWYMYIRRASIPDAEYLRREIKQELDQMEEDQDLHLYYSLMEFRHNLMLEYLEPLEKMRIEEQPRLSDLLLEIDKKQARLTGLLEYYFNFFRGMYELDQREYLSAIKFFKKAESKLIFVKDRIEKAEFFFKMSESYYYMKQTYFSMDYARQAYEIYKEHEAYNIRLLQCHSLFATNFLDLKQYEDAISHFQKAYSMAEAEKQPQLMGRTLYNIGLCKNSQSQYEDAIPYFKRAIAVFEESNILPSLPQAYFLITQIHYKLGKIDKAHEYHSKGMAYSQKAGDVIYLSEFEFLKSLYLSGPDEEAIQGFFDFLESKMLYADLEDFAIDVAKYYHERKNFQKASAYFLKVEQVRQLIQGGVSLYEIEV [F24A]

Variants of: B2
Details: with rapf_bacsu rapF

Effect of a mutation on the interaction, decreasing interaction:
MKKILVIDDHPAVMEGTKTILETDSNLSVDCLSPEPSEQFIKQHDFSSYDLILMDLNLGGEVNGMELSKQILQENPHCKIIVYTGYEVEDYFEEAIRAGLHGAISKTESKEKITQYIYHVLNGEILVDFAYFKQLMTQQKTKPAPSSQKEQDVLTPRECLILQEVEKGFTNQEIADALHLSKASIEYSLTSIFNKLNVGSRTEAVLIAKSDGVL [R183A]
MKKILVIDDHPAVMEGTKTILETDSNLSVDCLSPEPSEQFIKQHDFSSYDLILMDLNLGGEVNGMELSKQILQENPHCKIIVYTGYEVEDYFEEAIRAGLHGAISKTESKEKITQYIYHVLNGEILVDFAYFKQLMTQQKTKPAPSSQKEQDVLTPRECLILQEVEKGFTNQEIADALHLSKRSIEYSLTSIFAKLNVGSRTEAVLIAKSDGVL [N194A]
MKKILVIDDHPAVMEGTKTILETDSNLSVDCLSPEPSEQFIKQHDFSSYDLILMDLNLGGEVNGMELSKQILQENPHCKIIVYTGYEVEDYFEEAIRAGLHGAISKTESKEKITQYIYHVLNGEILVDFAYFKQLMTQQKTKPAPSSQKEQDVLTPRECLILQEVEKGFTNQEIADALHLSKRSIEYSLASIFNKLNVGSRTEAVLIAKSDGVL [T190A]
MKKILVIDDHPAVMEGTKTILETDSNLSVDCLSPEPSEQFIKQHDFSSYDLILMDLNLGGEVNGMELSKQILQENPHCKIIVYTGYEVEDYFEEAIRAGLHGAISKTESKEKITQYIYHVLNGEILVDFAYFKQLMTQQKTKPAPSSQKEQDVLTPRECLILQEVEKGFTNQEIADALHLSKRSIEASLTSIFNKLNVGSRTEAVLIAKSDGVL [Y187A]
